Values joined by “and” are separate entries in the source; they are usually repeats but may differ in a detail not shown here. Identical values can stand only once.
Assays:
[1] = target: T1, OX40 on HT1080 OX40 stable cell line (Homo sapiens (Human), UniProt P43489 29-277); assay: cell-based or functional assay
T1 sequence: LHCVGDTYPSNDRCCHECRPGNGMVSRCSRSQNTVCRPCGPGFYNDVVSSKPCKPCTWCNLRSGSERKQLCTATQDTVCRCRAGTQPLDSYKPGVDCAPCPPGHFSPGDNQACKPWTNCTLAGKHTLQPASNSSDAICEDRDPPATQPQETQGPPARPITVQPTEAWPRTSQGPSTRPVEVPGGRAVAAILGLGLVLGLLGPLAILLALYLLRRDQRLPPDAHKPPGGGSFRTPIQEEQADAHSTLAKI

OX40-his [2] = target: T2, OX40-his (Homo sapiens (Human), UniProt P43489 29-214, limits assumed); assay: SPR Biacore (summary table; repeats Table 6)
T2 construct: Analyte of the Biacore 8K assay; also called Ag OX40-his; Antigen OX40-his; not shown: His tag
T2 sequence: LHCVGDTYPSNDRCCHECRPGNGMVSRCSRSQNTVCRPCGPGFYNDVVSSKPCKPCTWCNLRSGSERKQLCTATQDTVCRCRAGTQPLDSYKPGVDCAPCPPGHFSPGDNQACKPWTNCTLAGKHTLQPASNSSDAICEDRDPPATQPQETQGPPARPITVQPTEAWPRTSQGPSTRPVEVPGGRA
Protocol: (§1) The affinities of purified antibody binding to OX40-his was determined using a Surface Plasmon Resonance (SPR) biosensor, Biacore 8k. Antibodies were immobilized on the sensor chip through capture method. Antigen OX40-his was used as the analyte. The data of dissociation (kd) and association (ka) rate constants were obtained using Biacore 8k evaluation software. The equilibrium dissociation constants (KD) were calculated from the ratio of kd over ka.

[3] = target: T1, OX40 on HT1080 OX40 stable cell line; assay: cell-based or functional assay; remark: listed apart in the source
human OX40 (NP_003318) [4] = target: T3, human OX40 (NP_003318) (human, UniProt P43489 29-214, limits assumed); assay: ELISA, binding to human OX40
T3 construct: also called HuOX40; CD134
T3 sequence: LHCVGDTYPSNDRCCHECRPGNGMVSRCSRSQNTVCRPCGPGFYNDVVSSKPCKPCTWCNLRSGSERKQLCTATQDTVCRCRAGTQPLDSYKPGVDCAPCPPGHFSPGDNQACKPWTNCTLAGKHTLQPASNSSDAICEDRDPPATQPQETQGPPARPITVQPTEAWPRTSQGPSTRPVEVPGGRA

OX40-his [5] = target: T2, OX40-his; assay: SPR Biacore 8K, antibody captured, OX40-his as analyte
Protocol: as §1

[6] = target: T1, OX40 on HT1080 OX40 stable cell line; assay: cell-based or functional assay; remark: listed apart in the source
human OX40 (NP_003318) [7] = target: T3, human OX40 (NP_003318); assay: OX40L/OX40 blocking ELISA, purified proteins
cyno OX40 = target: T4, cyno OX40 (cyno); assay: ELISA, binding to cyno OX40
T4 construct: also called CyOX40

murine OX40 = target: T5, murine OX40 (murine, UniProt P47741 20-211, limits assumed); assay: ELISA, murine OX40 binding
T5 construct: also called MuOX40; mouse OX40
T5 sequence (looked up): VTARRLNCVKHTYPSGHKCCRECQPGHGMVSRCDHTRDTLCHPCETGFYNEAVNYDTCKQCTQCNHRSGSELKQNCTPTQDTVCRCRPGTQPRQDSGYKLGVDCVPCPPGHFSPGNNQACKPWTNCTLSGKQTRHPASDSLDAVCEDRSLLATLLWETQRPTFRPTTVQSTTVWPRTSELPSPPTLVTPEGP

[8] = target: T1, OX40 on HT1080 OX40 stable cell line; assay: cell-based or functional assay; remark: listed apart in the source
human OX40 (NP_003318) [9] = target: T3, human OX40 (NP_003318); assay: ELISA, binding to human OX40; remark: listed apart in the source
human OX40 (NP_003318) [10] = target: T3, human OX40 (NP_003318); assay: OX40L/OX40 blocking ELISA, purified proteins; OX40L/OX40 ELISA blocking, purified proteins
human OX40 (NP_003318) [11] = target: T3, human OX40 (NP_003318); assay: ELISA, binding to human OX40 (summary table; repeats Table 3)

Binder	HT1080 + OX40L Antagonist Assay IC50 [1] [NM]	Kd (OX40-his [2]) [nM]	EC50 (read off the curve), IL-8 secretion, OX40L-free Ab agonist assay [3] [nM]	EC50 (human OX40 (NP_003318) [4]) [nM]	Kd (OX40-his [5]) [nM]	koff (OX40-his [5]) [s⁻¹]	kon (OX40-his [5]) [M⁻¹ s⁻¹]	cell-based functional assay in the absence of OX40L, EC50 [6] [nM]	IC50 (human OX40 (NP_003318) [7]) [nM]	EC50 (cyno OX40) [nM]	binding result (murine OX40)	HT1080 + OX4OL/IL-8 Antagonist Assay IC50 [8] [nM]	HT1080 Agonist Assay EC50 (IL-8 secretion) [8] [nM]	HT1080 Agonist Assay nBMAX [8]	EC50 (human OX40 (NP_003318) [9])	IC50 (human OX40 (NP_003318) [10]) [nM]	EC50 (human OX40 (NP_003318) [11]) [nM]
humanized Ab REMD 277.1 (VH2-1/VL2-1) (antibody, human IgG1, kappa, V domains shown) VH: EVQLVQSGAEVKKPGESLKISCKGSGYTFTSYVMHWVRQMPGKGLEWMGYINPYNDGTKYNEKFKGQVTISADKSISTAYLQWSSLKASDTAMYYCARYYGSNYAMDYWGQGTMVTVSS VL: EIVLTQSPATLSLSPGERATLSCRASQDIRNYLNWYQQKPGQAPRLLIYYTSRLHSGIPARFSGSGSGTDFTLTISSLEPEDFAVYYCQQGNTLPWTFGQGTKVEIKR	1.53	13.8	~1	0.96	13.8	0.000848	61400										
humanized Ab REMD 277.2 (VH2-1/VL5BM) (antibody, human IgG1, kappa, V domains shown) VH: EVQLVQSGAEVKKPGESLKISCKGSGYTFTSYVMHWVRQMPGKGLEWMGYINPYNDGTKYNEKFKGQVTISADKSISTAYLQWSSLKASDTAMYYCARYYGSNYAMDYWGQGTMVTVSS VL: DIQMTQSPSSLSASVGDRVTISCRASQDIRNYLNWYQQKPGKTVKLLIYYTSRLHSGVPSRFSGSGSGTDYTFTISSLQPEDIATYFCQQGNTLPWTFGGGTKLEIKR	3.52	5.94		3.1	5.94	0.000119	20000										
humanized Ab REMD 277 (VH2-1/VL2-2) (antibody, human IgG1, kappa, V domains shown) VH: EVQLVQSGAEVKKPGESLKISCKGSGYTFTSYVMHWVRQMPGKGLEWMGYINPYNDGTKYNEKFKGQVTISADKSISTAYLQWSSLKASDTAMYYCARYYGSNYAMDYWGQGTMVTVSS VL: EIVMTQSPATLSASPGERVTLSCRASQDIRNYLNWYQQKPGGAVRLLIYYTSRLHSGVPARFSGSGSGTDYTLTISSLEPEDYAVYFCQQGNTLPWTFGQGTKVEIKR	0.479	6.3		0.6	6.3	0.000178	28200	1.56									
murine antibody A4 (13C2G10F10) (antibody, V domains shown, also called MAb A4; H4/L4) VH: EVQLQQSGPELVKPGASVKMSCKASGYTFTSYIMHWVKQKPGQGLEWIGYINPYNDGTKYNEKFKGKATLTSDKSSSTAYMELSSLTSEDSAVYYCANYYGSSYTMDYWGQGTSVTVSS VL: DIQMTQTTSSLSASLGDRVTISCRASQDIRNYLNWYQQKPDGSVKLLIYYTSRLHSGVPSRFSGSGSGTDYSLTISNLEQEDIATYFCQQGNTLPWTFGGGTKLEIK									0.0683	0.0305	no binding	1.35	8.08	1.52	0.0157 nM and 0.0151 nM		
murine-human chimeric antibody derived from murine antibody A6 (chimeric IgG) (antibody, V domains shown, also called chimeric OX40 Ab) VH: EVQLQQSGPELVKPGASVKMSCKASGYTFTSYVMHWVKQKPGQGLEWIGYINPYNDGTKYNEKFKGKATLTSDKSSSTAYMELSSLTSEDSAVYYCANYYGSNYAMDYWGQGTSVTVSS VL: DIQMTQTTSSLSASLGDRVTISCRASQDIRNYLNWYQQKPDGTVKLLIYYTSRLHSGVPSRFSGSGSGTDYSLTISNLEQEDIATYFCQQGNTLPWTFGGGTKLEIKR	109	9.18		0.028	9.18	0.000865	94200										
murine antibody A3 (14F2C2D7) (antibody, V domains shown, also called MAb A3; H3/L3) VH: QVQLKESGPGLVAPSQSLSITCTVSGFSLSSYGVHWVRQPPGKGLEWLGVIWAGGSTDYNSALMSRLSISKDNSKSQVVLKMNSLQTDDTAMYYCAREEVWDWGQGTLVTVSA VL: DIQMTQTTSSLSASLGDRVTISCRASQDISNYLNWYQQKPDGTVKLLIYYTSRLQSGVPSRFSGSGSGTDYSLTISNLEQEDIATYFCQQGNTLPLTFGAGTKLELK										0.0171	no binding		6.74	4.49	0.0128 nM and 0.0136 nM	0.0293	
murine antibody A5 (40H11C2F5) (antibody, V domains shown, also called MAb A5; H5/L5) VH: EVQLQQSGPELVKPGASVKISCKASGYTFTENYMNWVKQSHGKSLEWIGDINRNNGGTRYNQKFKGKATLTVDKSSSTDYMELRSLTSEDSAVYYCGGTVVGYFDVWGTGTTVTVSS VL: DIQMTQIITSLSASLGDRVTISCRSSQDISNYLNWYQQKPDGTVKLLIYYTSRLKSGVPSRFSGSGSGTDYSLTISNLEQEDIATYFCQQGNTLPWTFGGGTKLEIK									0.0382	0.0143	no binding		2.8	3.2	0.0081 nM and 0.0079 nM		
murine antibody A6 (2G2E2D8) (antibody, V domains shown, also called MAb A6; Murine A6) VH: EVQLQQSGPELVKPGASVKMSCKASGYTFTSYVMHWVKQKPGQGLEWIGYINPYNDGTKYNEKFKGKATLTSDKSSSTAYMELSSLTSEDSAVYYCANYYGSNYAMDYWGQGTSVTVSS VL: DIQMTQTTSSLSASLGDRVTISCRASQDIRNYLNWYQQKPDGTVKLLIYYTSRLHSGVPSRFSGSGSGTDYSLTISNLEQEDIATYFCQQGNTLPWTFGGGTKLEIK	1.34									0.0446	no binding		1.56	4.54	0.0275 nM and 0.0272 nM		0.0275

From patent US20210024640A1 (REMD BIOTHERAPEUTICS, published 2021)
